In experiment [1] the target is HuCTLA4-HuIgG1 (fusion protein of the extracellular part of human CD152 and human Fc gamma 1, CTLA4-Ig) (human) (UniProt P16410). Put plainly: alphascreen, CTLA4-Fc; blocked ligand biotinylated CD80-Fc. In general terms: In Alpha technology, singlet oxygen from a donor bead excites a nearby acceptor bead.
Experiment [2] has as its target human CTLA4 (Y201 mutated to valine) on stably transfected CHO-K1 cells (human) (UniProt P16410). The experiment is described as follows: FACS competition, human CTLA4 CHO cells; blocked ligand HuB7.1/Fc.
Experiment [3] has as its target rhB7-H2-Fc (fusion protein of the extracellular part of human B7-H2 (ICOSL) and mouse Fc gamma 1, R&D Systems Cat #165-B7) (human; mouse) (UniProt O75144). The experiment is described as follows: competition ELISA, coated B7-H2; competes with ICOS-biotin. Background: An ELISA detects its analyte on a solid surface through an enzyme-linked reagent.

Sequence of HuCTLA4-HuIgG1 (fusion protein of the extracellular part of human CD152 and human Fc gamma 1, CTLA4-Ig) (human) (P16410 36-161 limits assumed): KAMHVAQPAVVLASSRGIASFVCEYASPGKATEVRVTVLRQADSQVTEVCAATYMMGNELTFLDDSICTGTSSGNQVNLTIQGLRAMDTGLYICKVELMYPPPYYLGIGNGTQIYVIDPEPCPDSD
Sequence of cold ICOS (receptor) (Q9Y6W8 21-140): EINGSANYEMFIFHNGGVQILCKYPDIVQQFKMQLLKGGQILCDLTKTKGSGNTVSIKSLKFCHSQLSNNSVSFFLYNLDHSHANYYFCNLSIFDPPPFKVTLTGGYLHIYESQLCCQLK
Sequence of rhB7-H2-Fc (fusion protein of the extracellular part of human B7-H2 (ICOSL) and mouse Fc gamma 1, R&D Systems Cat #165-B7) (human; mouse) (O75144 other isoform, or with tags, fused parts or gaps limits assumed): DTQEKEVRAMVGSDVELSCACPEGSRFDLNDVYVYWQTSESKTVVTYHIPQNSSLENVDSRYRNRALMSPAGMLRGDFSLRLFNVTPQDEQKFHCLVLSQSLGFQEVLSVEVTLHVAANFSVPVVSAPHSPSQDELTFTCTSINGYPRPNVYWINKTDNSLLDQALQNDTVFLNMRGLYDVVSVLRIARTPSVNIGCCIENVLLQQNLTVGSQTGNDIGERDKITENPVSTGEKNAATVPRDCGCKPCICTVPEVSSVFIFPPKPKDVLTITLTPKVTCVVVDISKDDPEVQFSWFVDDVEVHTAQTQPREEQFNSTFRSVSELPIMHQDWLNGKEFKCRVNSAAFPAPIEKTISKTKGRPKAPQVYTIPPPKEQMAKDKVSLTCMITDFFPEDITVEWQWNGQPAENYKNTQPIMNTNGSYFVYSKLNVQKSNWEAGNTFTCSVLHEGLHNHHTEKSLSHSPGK
Sequence of human CTLA4 (Y201 mutated to valine) on stably transfected CHO-K1 cells (human) (P16410 other isoform, or with tags, fused parts or gaps, change not shown): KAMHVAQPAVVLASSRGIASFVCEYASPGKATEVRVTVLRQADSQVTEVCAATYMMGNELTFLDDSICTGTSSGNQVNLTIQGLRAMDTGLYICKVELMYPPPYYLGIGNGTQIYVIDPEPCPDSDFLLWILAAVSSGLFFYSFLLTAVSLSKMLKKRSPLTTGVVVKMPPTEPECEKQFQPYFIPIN

In the case of BNI3 fab, in experiment [1], the IC50 (read off the curve) was found to be 2 nM.
Take “Mouse-anti-human CTLA4 clone BNI3 (antibody)”: the values for the IC50 (read off the curve) in experiment [1] and in experiment [2] were 0.3 nM and 10 nM, respectively.
In turn, cold ICOS (receptor) showed an IC50 (read off the curve) in experiment [3] of 20 nM.

The values are drawn from patent publication US20240182575A1.
